According to publication PMC7755716:

System: DtxR (Corynebacterium glutamicum (derived from KCTC No. 1445))
Assay: EMSA
Settings: 150 uM Mn2+, 5 mM Mg2+, 50 mM Tris-HCl pH 7.5, 5 mM MgCl2, 40 mM KCl, 5% glycerol, 1 mM DTT, 150 uM MnCl2, 30 min at room temperature, 200 ng DNA, 0-350 ng DtxR dimer in 10 ul, 15% …

Row | Substance | binding signal (% of wild-type affinity) | binding signal (% of wild-type affinity) (reference)
1 | NCgl1959 regulatory region, C-14G (399 bp) | 40 | –
2 | NCgl1959 regulatory region, wild type (399 bp) | – | 100
